B1: Pistol ribozyme (parent)
chain: GGGUCGUUGUUCCAUAAUCGCGUGGAUAUGGCACGCAAGUUUCUACCGGGCACCGUAAAUGUCCGACUGGAGCCGUUCGGGCGGCUAUAAACAGACCUCAGGCCCGAAGCGUGGCGGCACCUGCCGCCGGUGGUAAAAAAGAUCGGAAGAGCACACGUCU

Variants of: B1
Experiment: aptazyme ON/OFF ratio, guanine; higher = stronger switching; co-transcriptional cleavage with and without guanine

Variant	aptazyme ON/OFF ratio
U7A U8A G9U U10G U11A C12U C13U	1.13
U7A U8A G9U U10G U11A C12U C13G	1.15
U7A U8A G9U U10G U11A C12U C13A	1.14
U7A U8A U10A U11A C13U	1.11
U7A U8A U10A U11A C13A	1.16
U7A U8A U10A U11A C13G	1.18
U7A U8A G9U U10A U11C C12U C13A	1.06
U7A U8A G9U U10A U11C C12U C13U	1.21
U7A U8A G9U U10A U11C C12U C13G	1.05
U7A U8A G9U U10G U11G C12A C13A	1.24
U7A U8A G9U U10G U11G C12A C13U	1.17
U7A U8A G9U U10G U11G C12A C13G	1.2
U7A U8A G9U U10G U11C C13A	1.06
U7A U8A G9U U10G U11C C13U	1.02
U7A U8A G9U U10G U11C C13G	1.09
U7A U8A U10A C13A	1.11
U7A U8A U10A C13U	1.06
U7A U8A U10A C13G	1.06
U7A U8A G9U U10G C12U	1.33
U7A U8A G9U U10G C12G	1.16
U7A U8A G9U U10G C12A	1.22
U7A U8A G9U U10C C13A	1.08
U7A U8A G9U U10C C13U	1.2
U7A U8A G9U U10C C13G	1.03

Variant	aptazyme ON/OFF ratio
U7A U8A G9U U10A U11G C12G C13A	1.23
U7A U8A G9U U10A U11G C12G C13G	1.23
U7A U8A G9U U10A U11G C12G C13U	1.36
U7A U8A G9U U10C U11G C13G	1.17
U7A U8A G9U U10C U11G C13U	1.14
U7A U8A G9U U10C U11G C13A	1.1
U7A U8A G9U U10C U11A	1.29
U7A U8A G9U U10C U11G	1.33
U7A U8A G9U U10C U11C	1.04
U7A U8A U10C U11A C12U C13G	1.1
U7A U8A U10C U11A C12U C13U	1.11
U7A U8A U10C U11A C12U C13A	1.16
U7A U8A G9U U11C C12U C13A	1.18
U7A U8A G9U U11C C12U C13G	1.02
U7A U8A G9U U11C C12U C13U	1.32
U7A U8A G9U U10G C13U	1.36
U7A U8A G9U U10G C13A	1.24
U7A U8A G9U U10G C13G	1.21
U7A U8A U10A C12G	1.26
U7A U8A U10A C12A	1.33
U7A U8A U10A C12U	1.11
U7A U8A G9U U10G U11C C12G	1.2
U7A U8A G9U U10G U11C C12A	1.33
U7A U8A G9U U10G U11C C12U	1.08

Variant	aptazyme ON/OFF ratio
U7A U8A G9U U10A U11G C12U	1.46
U7A U8A G9U U10A U11G C12A	1.07
U7A U8A G9U U10A U11G C12G	1.19
U7A U8A G9U U10G U11A C12G C13U	1.51
U7A U8A G9U U10G U11A C12G C13A	1.18
U7A U8A G9U U10G U11A C12G C13G	1.4
U7A U8A U10A U11C	0.996
U7A U8A U10A U11A	1.18
U7A U8A U10A U11G	1.17
U7A U8A G9U U11A C12G C13G	1.16
U7A U8A G9U U11A C12G C13U	1.14
U7A U8A G9U U11A C12G C13A	0.953
U7A U8A U10A U11G C13A	1.16
U7A U8A U10A U11G C13U	1.26
U7A U8A U10A U11G C13G	1.28
U7A U8A G9U U10G U11C C12U C13A	1.09
U7A U8A G9U U10G U11C C12U C13U	1.28
U7A U8A G9U U10G U11C C12U C13G	1.22
U7A U8A G9U U11A C12U	1.15
U7A U8A G9U U11A C12A	1.25
U7A U8A G9U U11A C12G	1.33
U7A U8A G9U U10G U11C C12A C13U	1.21
U7A U8A G9U U10G U11C C12A C13A	1.29
U7A U8A G9U U10G U11C C12A C13G	1.15

Variant	aptazyme ON/OFF ratio
U7A U8A G9U U10G U11A C13U	1.1
U7A U8A G9U U10G U11A C13A	1.02
U7A U8A G9U U10G U11A C13G	1.04
U7A U8A U10C U11A	1.2
U7A U8A U10C U11G	1.2
U7A U8A U10C U11C	1.04
U7A U8A U10C U11G C13A	1.13
U7A U8A U10C U11G C13G	1.2
U7A U8A U10C U11G C13U	1.17
U7A U8A G9U U11G C13G	1.08
U7A U8A G9U U11G C13A	1.13
U7A U8A G9U U11G C13U	1.16
U7A U8A G9U U10G U11A C12A C13A	1.19
U7A U8A G9U U10G U11A C12A C13G	1.09
U7A U8A G9U U10G U11A C12A C13U	1.16
U7A U8A U10A U11C C12U C13A	1.11
U7A U8A U10A U11C C12U C13U	1.04
U7A U8A U10A U11C C12U C13G	1.1
U7A U8A U10G C12A C13A	1.21
U7A U8A U10G C12A C13G	1.06
U7A U8A U10G C12A C13U	1.19
U7A U8A U10C C12G C13A	1.17
U7A U8A U10C C12G C13U	1.26
U7A U8A U10C C12G C13G	1.19

Variant	aptazyme ON/OFF ratio
U7A U8A U10A C12A C13A	1.23
U7A U8A U10A C12A C13G	1.03
U7A U8A U10A C12A C13U	1.37
U7A U8A G9U U11G C12G C13U	1.1
U7A U8A G9U U11G C12G C13G	1.22
U7A U8A G9U U11G C12G C13A	1.22
U7A U8A U10A U11G C12G	0.984
U7A U8A U10A U11G C12U	1.17
U7A U8A U10A U11G C12A	1.09
U7A U8A U10C U11A C12A C13U	1.16
U7A U8A U10C U11A C12A C13G	1.18
U7A U8A U10C U11A C12A C13A	1.1
U7A U8A G9U U10G U11G C13A	1.24
U7A U8A G9U U10G U11G C13G	1.3
U7A U8A G9U U10G U11G C13U	1.17
U7A U8A U10A U11C C12G C13A	1.06
U7A U8A U10A U11C C12G C13G	1.24
U7A U8A U10A U11C C12G C13U	1.15
U7A U8A G9U U10A U11C C12U	1.1
U7A U8A U10C U11G C12A C13A	1.12
U7A U8A U10C U11G C12A C13G	1.16
U7A U8A U10C U11G C12A C13U	1.12
U7A U8A G9U U11A	0.956
U7A U8A G9U U11G	1.36

Variant	aptazyme ON/OFF ratio
U7A U8A G9U U11C	1.09
U7A U8A G9U U10C C12G C13G	1.35
U7A U8A G9U U10C C12G C13U	1.4
U7A U8A G9U U10C C12G C13A	1.31
U7A U8A G9U U10A U11G C13G	1.13
U7A U8A G9U U10A U11G C13A	1.22
U7A U8A G9U U10A U11G C13U	1.19
U7A U8A U10A U11A C12U C13U	1.14
U7A U8A U10A U11A C12U C13G	1.24
U7A U8A U10A U11A C12U C13A	1.33
U7A U8A U10C U11A C12A	1.24
U7A U8A U10C U11A C12U	1.14
U7A U8A U10C U11A C12G	1.19
U7A U8A G9U U11A C13G	1.06
U7A U8A G9U U11A C13A	1.19
U7A U8A G9U U11A C13U	1.26
U7A U8A G9U U10G U11A C12A	1.29
U7A U8A G9U U10G U11A C12U	1.07
U7A U8A G9U U10G U11A C12G	1.32
U7A U8A G9U U11A C12A C13A	1.04
U7A U8A G9U U11A C12A C13G	1.12
U7A U8A G9U U11A C12A C13U	1.22
U7A U8A G9U U11C C12G	1.19
U7A U8A G9U U11C C12U	1.13

Variant	aptazyme ON/OFF ratio
U7A U8A G9U U11C C12A	1.17
U7A U8A U10C C12U	1.68
U7A U8A U10C C12A	1.16
U7A U8A U10C C12G	1.16
U7A U8A U10A U11A C12U	1.2
U7A U8A U10A U11A C12G	1.19
U7A U8A U10A U11A C12A	1.18
U7A U8A U10A U11G C12U C13U	1.31
U7A U8A U10A U11G C12U C13A	1.34
U7A U8A U10A U11G C12U C13G	1.15
U7A U8A U10A	1.05
U7A U8A U10C	3.05
U7A U8A U10G	1.52
U7A U8A G9U U10C U11G C12U C13U	1.22
U7A U8A G9U U10C U11G C12U C13G	1.07
U7A U8A G9U U10C U11G C12U C13A	1.15
U7A U8A G9U U10G U11G C12U C13A	1.47
U7A U8A G9U U10G U11G C12U C13G	1.24
U7A U8A G9U U10G U11G C12U C13U	1.22
U7A U8A G9U U10G U11G C12G C13U	1.22
U7A U8A G9U U10G U11G C12G C13A	1.21
U7A U8A G9U U10G U11G C12G C13G	1.16
U7A U8A G9U U10C U11C C12A	1.04

Source: the RNAGym collection of RNA variant scans (doi:10.1021/acssynbio.7b00057)
